# Experimental data published in the supplement of paper PMC9170038.
# Test system: K4 kissing-loop RNA reporter
# Assay: apparent KD of K4 kissing-loop reporter; higher = weaker reporter binding
# Settings: Eterna round: R107; input ligand: theophylline 20 uM
# Experimental: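 RNA-MaP round R107: designed RNA switches with theophylline, tryptophan, arginine or FMN aptamers are transcribed on-chip within common flanks. They are titrated with a labelled K4 kissing-loop RNA reporter in RNA-MaP buffer (100 mM Tris pH 7.5, 80 mM KCl, 4 mM MgCl2), without ligand or with the indicated ligand. Median apparent KD per design.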
# 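Note: bound reporter read as fluorescence of individual clusters on recovered sequencing chips by microscopy, with normalized cluster intensities fitted with a binding model.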
row,Sequence,apparent KD of K4 kissing-loop reporter
1,UGUACCGAGUCAGGAUAUCAUAAUAAUGCAGUGAUGUUGCAAUAACGACUGACAAAGUCGGUCGAUUGAGAAGGGACUUGGUACU [FmnBS 6 #SwitchBubble #StaticStem],110 nM
2,GCGAUUCAGUGAUGUUGGAAAUACAGGGAUACCAGCCGAAAAUAAGGCCCUUGGCAGCUUAAUAGGAAAGAACUAAGAAAGACGC [Theophylline A Same State; Euphoria Solution 3],755 nM
3,UUAGAGAUCUCAGGAUAUGAGUGAUGUUGGUAUCAAGAUCUGAGAUAGAAUUCUAUCUCAGAUCAAUCAGAAGGGAGAUCUCAUU [AK2.1 Exc FMN B],583 nM
4,UGAUAGGACAGAAGGAGCGGAAGUGAUGUUUCCAAAAGGUAAAGGUGUCAAAAGACACCCUUCCAGGUAGGUCGCUGUCCUAUCU [ArgBX 12 #Palindromic #SwitchBubble #StaticStem],126 nM
5,GCAUAUACGAGAAGGAGCGUGCAUGACGAAUUAAUCAUCGACCUUAGUGAUGUUAAGGACGCACAGGUAGGUCGCUCGUGUAUGC [#04 K4 Arginine B Same State],345 nM
6,GUUACGCAUGGAAGGAGCGCUCUCCGGCUUAAUAACACAGUGAUGUUGUGAAUUUGCCGAAAGCAGGUAGGUCGCCAUGUGUAAC [Ex Arginine B K4 10],435 nM
7,UCCUGCAAUCGACCACGAAAGUGGAUUGAUACCAGAGUCGAAAGACUCCCUUGGCAGCGAGUGAUGUUCGAAGCAGGUAAAUAAA,457 nM
8,UAACGGCCCAGUGAUGUUGGGUGGAGGCGGCGAGGACCGGUACGGCCGCCACUCGGCGCACAGGCGGAGUGAUGUUGCGCGUAAA [Same State Tryptophan A GF 13],182 nM
9,AAAUAAAGCAGUCAUCCAGUGAUGUUGGAAGGAGCGUGCGAAAGCACAGGUAGGUCGCCAAAACCUAAUAAUGGCUGCUAAAUAA [#SwitchBubble 2 #K4Early],210 nM
10,GUAUCGCUAGGAGGAUAUUUCAAAUCGCCAAUAAAUGGUGAUACGGAGUGAUGUUCCGAUUUACGGAAAGAAGGCCUAGUGAUAC [FMN B 6],288 nM
11,UGUCAUUGGUCUGAUACCAGCUGAUCGGAAACGAUCUUGCUGGAGUGAUGUUCCAAGUAAAGCCCUUGGCAGCAGACCGAUGACU [TheoBS 9 #SwitchBubble #StaticStem],107 nM
12,GGUAGCAUGGCGGCCGCCACUUACUUCAAUAGGAGUGAUGUUCCUAUUACUAGUAGUGAAAUAAUAAGGACCGGGCCAUGCUACC,82.8 nM
13,AAACAUCACUACUUCUUCGUCCUAGAAGACUAGGAUAUCAGGAAACUGAGAAGGAGUCUCUGCAGUGAUGUUGCAGCUAGGACGA [[K]'-[F2]'-[F1]'-[F1]-[F2]-[K1]-[K2]-[F]''_Design2],249 nM
14,AAGCAGUCCCUUGUAGUCAUCGAAGAUGAACGAGGACCGGUACGGCCGCCACUCGGAGUGAUGUUCCGAAGGCUGCAAAAUAAAA [MatMod 19 - Jieux - Exclusion - Tryptophan A],152 nM
15,AAUUUAUAUUUAUUCUUUAAAUGUUCAGAAGGAGCGUGAAUUAUCACAGGUAGGUCGCUGGGCUAGUGAUGUUGGCUAUAUACUA [whbob_Ex_Arginine_A_2t125],196 nM
16,GGACGACAGGCGGCCGCCACUCAAAGCAGCCAGCGAGUGAUGUUCGUGGCGGAGUGAUGUUCCUAGAGGACCGGGUCUGCAGUUC [Same State Tryptophan B GF 18],490 nM
17,UUCAUCGUGGUUCGCGGGUGGUAUGAAAAGCGAGGACCGGUACGGCCGCCACUCGGUUCCGCUUGUUGAGUGAUGUUCAAUAUUU,350 nM
18,AACUGUCAAGGACAACAUUACUGAGGUGAUACCAGCAUCGAAAGAUGCCCUUGGCAGCACUGACUUGCAGUGAUGUUGCAAGUAA [BrourdMod 8 - Jieux - Exclusion - Theophylline A],215 nM
19,UUAACCAACAGCGAUACCAGCGUGGAGUGAUGUUCCGAGGAUCGGAGUGAUGUUCCGAAGCGCCCUUGGCAGCGCAGAAGCGCCA [Exclusion Theophylline B GF9],139 nM
20,AGUGGACGUGUCCGGAGUGAUGUUCAGGAUACCAGACACGAAAGUGUCCCUUGGCAGCCGGAGUGAUGUUCCGGCGUUCACUAAA [Omei KL Theo A Exc B v4],419 nM
21,GAUAUAGAGGCGGCCGCCACUAGUGAUGUUAGUGAUGUUAGAUAGAGAAUAGAACAGAGGUGGGAUAGGACCGGGCCAGAUAGAG [whbob_SS_Tryp_B_w34],65.8 nM
22,GGGAGUAGUGCGGCCGCCACUGAGAAAGAAGAAGAUUGUAGUGAUGUUAUGGAGGAAAGGAAGAACAGGACCGGGCAUUAGAUUU [SSTRyptB.I],651 nM
23,GGAUAGGACACAGGAUAUGGUAGUGAUGUUACCAAACUGGUUAAACAUGUCAGAAAACUGGCAUGACCAGAAGGGUGUCCUAUCG [FmnBX 27 C11+G75],71 nM
24,AUUGUCGGAGUCUGUGCUGACUGACGAGCAAAGGAUAUGUUAUUAAACAGAAGGUUGUGCUGCUUAAGUGAUGUUUUUGGAGCUA [theeternabot_sameState_KL_FMN_A_26],228 nM
25,CGAUUCAUGGCGGCCGCCACUCGCGAAGCUCCCGUUACGAUGUCCGCAACAGUGAUGUUGUUGCCGAGGACCGGGCCGAGAUCCA [theeternabot_exclusion_KL_Trp_B_31],211 nM
26,GGUAGCUAGGUAGGAUAUAGCUAGUGGAGUGAUGUUCCACGAUACACGAGUGAUGUUCGUACCCUGCUAGAAGGGCCUAGCUACC,172 nM
27,GGUAGCAUGGCGGCCGCCACUCAUCGCCUCCCAUCGUCGGGAAGAAUAAGUGUAGUGAUGUUACAGAGGACCGGGCCAUGCUACC,494 nM
